The test system of series [1] is AMV reverse transcriptase (Avian myeloblastosis virus). The following applies: intramolecular 3' extension to end of template.
Series [2] concerns the target T1, HIV-1 reverse transcriptase (Human immunodeficiency virus 1) (UniProt P03366+P03366). Nature of the series: inhibition. The following applies: Ki' printed as ≤ 3 uM; almost no inhibition at 81 nM.
Series [3] concerns the target T1, HIV-1 reverse transcriptase (Human immunodeficiency virus 1). As to the kind of experiment: filter. The following applies: apparent Kd, HRT buffer 37 C.

pKd, pKi: −log10 of the molar value.

In general, pKi refers to the Ki on a negative log10 scale, so that one unit is a factor of ten. One may read the pKd as the Kd on a negative log10 scale, so that one unit is a factor of ten.

Regarding “ATCCGCCTGATTAGCGATACTTACGTGAGCGTGCTGTCCCCTAAAGGTGATACGTCACTTGAGCAAAATCACCTGCAGGGG [RT26]”, the activity in series [1] stood at 50 % initiation. As to “ATCCGCCTGATTAGCGATACTNNNNNNNNNNNNNNNNNNNNNNNNNNNNNNNNNNNACTTGAGCAAAATCACCTGCAGGGG [RO degenerate ssDNA library]”, the pKi in series [2] was under 5.52. The negative-log Kd (pKd) in series [3] is 5.85.
